Source: publication PMC12691273

Target: CRM1 protein (chromosome region maintenance 1)
Experiment: co-immunoprecipitation (IP FOXO1, WB CRM1), band quantification
Conditions: chicken granulosa cells, with 740-Y-P; n = 3; parent: est. 1.9; read off a plot

Substance | response
chicken forkhead box O1 (FOXO1) wild-type (from UniProt A0A8V0XGP1) S248A | 2
chicken forkhead box O1 (FOXO1) wild-type (from UniProt A0A8V0XGP1) S311A | 2
